Laboratory results published in the supplement of paper PMC12042874.
± gives the uncertainty stated by the source.

Experiment: amyloid nucleation score (Sup35N fusion, yeast selection) (log enrichment); library NNK2; higher = more nucleation; inactive = no reads after selection
How it was run: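 Using DiMSum, nucleation scores were taken as the log enrichment of output over input reads, centred on the mode score of non-aggregating sequences. The input and output reads came from Illumina sequencing of plasmid inserts, with sequences under 100 input reads excluded. The yeast were psi-negative, expressed Sup35N fused to peptides of 20 random codons, were induced with 100 μM copper sulfate for 24 hours, and were grown 7 days at 30°C on medium lacking adenine and uracil.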

Substance	amyloid nucleation score
LLNALCMWMPM	6.876 ± 0.051
RSSASRNQFKESCFRAHQFP	-0.339 ± 0.27
SNNNAIVNRSRIIRHFMNYC	-0.604 ± 0.56
IFFLMNPR	2.16 ± 0.068
AYGQKNVSSRSLTFV	3.41 ± 0.15
LGISLPIEVLSFSLSMARCI	-0.408 ± 0.45
TSHSFVLVY	-0.705 ± 0.33
VVSKDDRDGNV	3.14 ± 0.044
YYTWDFWDIFRGWYRRDGIC	inactive
ANFCVDCIDIAH	0.787 ± 0.45
CEIHYIIRQRSPVLSNRVQR	inactive
CGSSMEYVGPLVYSAGAAEV	-0.097 ± 1.1
ACLLIFLSTA	2.31 ± 0.078
SVWTFLTCI	0.906 ± 0.46
ISFRFLAFCFFYDKVSLEQK	inactive
GYRSHSDNNICNVSGSHTYI	3.96 ± 0.065
FNRVDDMCGPWCENWLNGQT	-1.23 ± 1.1
KALAYAWLCISLYKDFGYYN	inactive
LVKVTLRVMISV	0.099 ± 0.2
IFLEMKDHIIRATFNRLRFC	inactive
CPNLNTFTLFPELGNLYLHR	0.329 ± 0.8
TLTYFLNSSWD	1.93 ± 0.25
LDMRSRLHFDDCTRRGYLGM	-0.166 ± 0.65
HFCYSNNRWVSGAFYVSRPT	1.78 ± 0.2
YAVLIMYYALAKAWWSLKYG	-0.002 ± 1
VNYFVRGTVSK	0.074 ± 0.74

Substance	amyloid nucleation score
RLPTGSQNY	-0.281 ± 0.38
HIVEIGALYRAIYLKVKWRQ	2.62 ± 0.21
KIYERPAITDFGSQVD	-0.505 ± 0.21
SMGFSRHRFKG	0.164 ± 0.8
SSCIWLVFKCSWFGF	4.421 ± 0.029
IALANVGLED	-0.023 ± 0.33
DKPVSTH	-0.861 ± 1
GFRTFRRGREWSLE	0.714 ± 0.34
APRCALQLGS	1.27 ± 0.28
MLESWFMY	-0.154 ± 0.49
PGSRRL	0.011 ± 0.41
SFALGLQRNVNCKDD	-0.06 ± 0.54
QIPNILVGNDMICVKKVLNW	2.97 ± 0.051
CSGHNRYYPRRGMDQHMLVF	0.266 ± 0.2
LPTIGVWLTRPRVCFLSYSV	0.045 ± 0.63
RTMLSGLLGYRSRSLADSPF	-0.199 ± 0.76
YSFSRTYVLIIDGVS	1.27 ± 0.18
LVVIYMTRVGASTKLRVSVL	inactive
LNVLISYMHRVWRYIVSAR	0.362 ± 0.35
SCLSSFELVL	-0.694 ± 1.1
LSKRIDSRDMLGSGNHRCLL	-0.655 ± 0.64
CGKLSLLNQVWIVSQPMPGQ	7.57 ± 0.064
RFQVSLEILSIYRCRTTTD	3.27 ± 0.15
GRRHVNFCSRTDYRAGPHRY	0.112 ± 1.1
GMNWGWRFVNIFY	5.848 ± 0.031
YCNIPNRPVSKALRNHLS	inactive

Substance	amyloid nucleation score
SRSSGTDFMYFDRFLPTRWA	-0.805 ± 1.1
VGTLNGFRRFGRSGKFNILE	-0.195 ± 0.27
TGFGLMHGLAGKCCLRFFIT	-0.116 ± 0.35
TCDWLKAFIAWF	1.53 ± 0.3
TGGRF	0.264 ± 0.8
AQVEFLYNSLVHYFSIDNTG	inactive
ISTSPMLACVASVRRSLIRT	0.098 ± 0.74
AGFSSDGLQVMIIYD	0.379 ± 0.31
FVVWWFLKEMRDSAGKGDEF	-0.49 ± 0.34
SVYVVGFLCQGYSSLRSLVA	4.42 ± 0.089
YSIVNTNAGMTTRAWVTPTW	1.38 ± 0.21
NLLRNRARWL	-1.08 ± 0.44
QVFAHIAVSYGLLFFLHWEC	-0.331 ± 1
FRVMSRVWTTEESAFLKLLC	-0.94 ± 0.63
GGTQLRTG	-0.961 ± 1.1
YNVGALASVSRFRDGFGLS	1.57 ± 0.1
VGSKWLNGSRGKRLELRIGR	4.03 ± 0.12
SVCMRIKFWSPAPDAEHEKA	6.614 ± 0.056
CKPAVPMLN	2.49 ± 0.076
STEQLLQVHNTHGRPWSRLS	1.32 ± 0.32
IGAQPRDGYN	-0.223 ± 0.49
GHGKPTGYYGDYENQTVLY	-0.25 ± 0.61
INDVLFTTRRGHTIS	2.75 ± 0.094
YARANYYALLWPRLTFPMIL	-1.41 ± 0.78
IVEVVFRSIPIAMDSCCCSN	-1.14 ± 0.28
GIFCSVGMLTVCLLVRDKLV	inactive

Substance	amyloid nucleation score
RVEGFRFYFEVRLGSVSRKL	-0.42 ± 0.76
LIYWCHAFVKT	-1.27 ± 0.53
GWNGNLSGTAHLGSSIVSSG	-0.649 ± 0.79
LSQGLIKRMYQHMCMKCVGF	-0.08 ± 0.35
LSHILMI	inactive
HMCTFSIICKKVLMSFMGIL	1.93 ± 0.14
IIKLGESNPKSPFGTLYYGF	-0.213 ± 1.1
LLSWVHR	-0.357 ± 0.5
GLMGLYRRALSTLRRILFMR	-0.072 ± 0.63
WVIDACLNRPLSERSYYRNK	0.767 ± 0.58
MSRSSPMIHFETCWHASAGF	3.82 ± 0.044
RSGVESHRRKVPLVPMGVTV	1.16 ± 0.36
KNTYKQACWQAELHKGLLVG	0.748 ± 0.17
HVTRQLCPLMSFILGR	0.565 ± 0.49
NSVAIVQIVGASAWRGNLL	5.128 ± 0.046
IWRSRKLHDMYTVVRGVASD	0.182 ± 0.56
LPLWLIDIALFLSFCIVGQS	-0.369 ± 1.1
CFLESGSLMLYEV	-0.081 ± 1.1
DDRIGSRVYVRVMNTKFFIK	6.406 ± 0.045
ITHMLLTGIPTQLSRV	-0.621 ± 0.74
FGWVVSSVSFKVMMAV	-0.084 ± 0.44
KYVALALERFMLAAHGTSLT	-0.235 ± 0.33
SQWDKTVT	-0.986 ± 0.55
VMRNKILF	-0.341 ± 0.79
SRRFFVCL	inactive
WIMVI	-0.124 ± 0.26

Substance	amyloid nucleation score
RRFKSDLL	1.57 ± 0.44
AYSVRLDLSCDQRCSF	4.366 ± 0.041
GGKFSVIGVGHLLDGEH	1.14 ± 0.15
ESAAER	-0.186 ± 0.76
SVLERPCMS	0.176 ± 0.76
YPDIYGFEKRIDSPSNLGML	0.433 ± 0.6
NFYVVDQCSYRSGRLNIKWL	4.13 ± 0.079
YKDEGINEPYTVRTVHKLTT	0.215 ± 0.76
YTKFANSHFIGLNRSCWSNE	-0.238 ± 0.8
YVIVVGWPR	9.408 ± 0.073
SLKPSLLSDKNE	-1.39 ± 0.36
NFMNSP	-0.33 ± 1.1
VWSNLSVRLRHI	-0.196 ± 1
FPVYRI	inactive
CSFNKTALIAFNSNGGEYEH	-2.66 ± 0.75
LTVRS	-0.42 ± 0.76
RVSVDTWQAYMAICWSYVGL	0.915 ± 0.23
HFKFYRNNYMTVIVHKACDV	8.665 ± 0.083
SFCSTGTEDTT	-0.213 ± 0.26
VLFCT	-1.29 ± 0.61
WFTAVVLNS	0.333 ± 0.25
TPDLSLLFIIRRCIFSGTPY	inactive
ADEEFRRFIVPSFLPGSCSS	-0.08 ± 0.39
YVMFRC	1.31 ± 0.32
CYNALWLFGNHAKTAHGLGH	0.709 ± 0.48
AHHRCHWYECVMMPRHGPRP	1.26 ± 0.33
